From publication PMC11148769 (Cell Reports Medicine, 2024)

Molecular target: T1, BA.2.12.1 S trimer (SARS-CoV-2, Omicron BA.2.12.1, strain)
T1 construct: also called BA.2.12.1 spike
Experiment: cryo-EM structure
Settings: both partners purified

B1: XBB-4 Fab (Fab, V domains shown)
VH: EVQLVQSGGGLVKPGGSLRLSCAASGFSFTNAWMNWVRQAPGKGLEWVGRIKSKADGGTTDYAAPVKGKFTISRDDSKNTLYLQMNSLKTEDTAIYYCTSDVYDFSTGFGQRDDFDYWGQGTLVTVSS
VL: DIVMTQSPSSLSASVGDRVTITCRASQSISYFLNWYQQKPGKAPKLLISAASSLQSGVPSRFSGSGSGTDFTLTISSLQPEDFATYYCQQSYSSLITFGGGTKVEIK
  stoichiometry N: 3 Fabs per S trimer
